# Assay results taken from US20250084172A1 (23ANDME, published 2025).
# T1: human soluble ULBP6 haplotype 02 (hULBP6_02) (human, UniProt Q5VY80 26-218)
# T1 chain: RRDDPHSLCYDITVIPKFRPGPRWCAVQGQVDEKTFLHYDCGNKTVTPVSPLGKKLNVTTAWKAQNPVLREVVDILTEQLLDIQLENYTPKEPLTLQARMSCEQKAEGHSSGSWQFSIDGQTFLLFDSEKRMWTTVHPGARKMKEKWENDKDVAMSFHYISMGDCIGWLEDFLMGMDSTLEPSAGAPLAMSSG
# B1: humanized 8E8 (h8E8), Fc version not stated (antibody, V domains shown)
# VH: QVQLVQSGAEVKKPGSSVKVSCKASGYTFTTYGITWVRQAPGQGLEWIGEIYPGTATSYSNERFKGRATLTADRSTSTAYMELSSLRSEDTAVYFCARRGTYGTYEWYFDVWGRGTLVTVSS
# VL: DIQMTQSPSSLSASVGDRVTITCRASENIYSHLAWYQQKPGKSPKLLVYAATNLADGVPSRFSGSGSGTDYTLTISSLQPEDFATYYCQHFWGTPWTFGGGTKVEIK
# notes: also called hu8E8; PUR3924
# B2: human ULBP6 displayed on M13 phage (ULBP6-HA-pIII) (other)
# chain: RRDDPHSLCYDITVIPKFRPGPRWCAVQGQVDEKTFLHYDCGNKTVTPVSPLGKKLNVTMAWKAQNPVLREVVDILTEQLLDIQLENYTPKEPLTLQARMSCEQKAEGHSSGSWQFSIDGQTFLLFDSEKRMWTTVHPGARKMKEKWENDKDVAMSFHYISMGDCIGWLEDFLMGMDSTLEPSAGAPLAMSSGYPYDVPDYA
# notes: also called ULBP6 phage; not shown: M13 minor coat protein pIII
# Assays:
# [1] = molecular target: T1, human soluble ULBP6 haplotype 02 …; assay: cell-based or functional assay
# [2] = molecular target: T1, human soluble ULBP6 haplotype 02 …; assay: Biacore binding to ULBP6_02 (SPR)
# [3] = molecular target: anti-HA antibody; assay: phage ELISA: plate coated with anti-HA antibody, phage titrated in 3-fold steps from 1.0 O.D./mL, HRP anti-M13 detection, O.D. 450
# [4] = molecular target: hNKG2D-Fc (human NKG2D 78-216 with C-terminal long huFc-Flag tag) (human); assay: phage ELISA: plate coated with the ULBP6 receptor NKG2D (PUR4928, construct not stated), phage titrated in 3-fold steps from 1.0 O.D./mL, HRP anti-M13 detection, O.D. 450
# hNKG2D-Fc (human NKG2D 78-216 with C-terminal long huFc-Flag tag) (human), sequence (chain, as listed by the source limits assumed): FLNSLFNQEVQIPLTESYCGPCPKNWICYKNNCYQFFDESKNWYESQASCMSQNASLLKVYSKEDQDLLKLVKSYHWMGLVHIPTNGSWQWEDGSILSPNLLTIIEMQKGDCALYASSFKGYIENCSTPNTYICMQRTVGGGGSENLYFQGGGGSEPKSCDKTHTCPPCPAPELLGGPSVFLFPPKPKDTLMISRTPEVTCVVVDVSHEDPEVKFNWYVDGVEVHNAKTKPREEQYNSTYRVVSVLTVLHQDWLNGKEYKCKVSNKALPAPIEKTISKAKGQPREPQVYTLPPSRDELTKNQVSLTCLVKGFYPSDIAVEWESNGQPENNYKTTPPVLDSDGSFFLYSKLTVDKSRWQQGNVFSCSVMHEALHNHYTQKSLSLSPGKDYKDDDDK
binder,measurement,setting,value
B1,IC50 (read off the curve); fall of NKG2D MFI on primed PBMCs with 50 nM sULBP6_02,[1],~3 nM
same,Kd,[2],1.56 nM
B2,EC50 (read off the curve),[3],~0.01 O.D. (phage)
same,EC50 (read off the curve),[4],~0.01 O.D. (phage)
